Results reported in US9327008B2, “Cell-permeant peptide-based inhibitor of kinases” (Purdue Research Foundation, priority 2008, dated 2016).

Columns and labels:
KDR = target: T1, KDR (Homo sapiens, UniProt P35968); test: Millipore radiometric kinase activity assay, KDR (h); assay type: biochemical
T1 construct: purchased Millipore (assay service)
Protocol: (§1) A commercial radiometric assay service (Millipore, Billerica, Mass.) was used to test the specificity and potency of peptides containing a coupled transduction domain and therapeutic domain, hereinafter “complete peptides”). In these assays, if the kinase is not inhibited by an inhibitor peptide, a positively charged substrate is phosphorylated with a radiolabeled phosphate group from an ATP.
(§2) In a final reaction volume of 25 μL, KDR (h) (5-10 mU) is incubated with 8 mM MOPS pH 7.0, 0.2 mM EDTA, 0.33 mg/mL myelin basic protein, 10 mM MgAcetate and [γ-^33P-ATP] (specific activity approx. 500 cpm/pmol, concentration as required). The reaction is initiated by the addition of the MgATP mix. After incubation for 40 minutes at room temperature, the reaction is stopped by the addition of 5 μL of a 3% phosphoric acid solution. 10 μL of the reaction is then spotted onto a P30 filtermat and washed three times for 5 minutes in 75 mM phosphoric acid and once in methanol prior to drying and scintillation counting.
(§3) IC50 values for inhibitor peptides were determined using Millipore's IC50Profiler Express service. The IC50 value was estimated from a 10-point curve of one-half log dilutions. For peptides tested for specificity, the concentration of the peptides that inhibited approximately 95% of MK2 activity was chosen to profile against a battery of kinases related to MK2, cell viability, or human disease from MilliporeKinaseProfiler service. In both assays, compounds were supplied in dimethylsulfoxide (DMSO). Every kinase activity measurement was conducted in duplicate.
(§4) Therapeutic inhibitor peptides were assayed for activity against human kinases related to MK2, cell viability, or human disease. The assays were performed using concentrations of therapeutic inhibitor peptides that yielded 2% to 8% of normal MK2 activity. Error is reported as the standard deviation between 2 samples, and “c” is rat AMPK whereas all other kinases used are human kinases.

JAK3 = target: T2, JAK3 (Homo sapiens, UniProt P52333); test: Millipore radiometric kinase activity assay, JAK3 (h); assay type: biochemical
T2 construct: purchased Millipore (assay service)
T2 sequence (P52333 1-1124): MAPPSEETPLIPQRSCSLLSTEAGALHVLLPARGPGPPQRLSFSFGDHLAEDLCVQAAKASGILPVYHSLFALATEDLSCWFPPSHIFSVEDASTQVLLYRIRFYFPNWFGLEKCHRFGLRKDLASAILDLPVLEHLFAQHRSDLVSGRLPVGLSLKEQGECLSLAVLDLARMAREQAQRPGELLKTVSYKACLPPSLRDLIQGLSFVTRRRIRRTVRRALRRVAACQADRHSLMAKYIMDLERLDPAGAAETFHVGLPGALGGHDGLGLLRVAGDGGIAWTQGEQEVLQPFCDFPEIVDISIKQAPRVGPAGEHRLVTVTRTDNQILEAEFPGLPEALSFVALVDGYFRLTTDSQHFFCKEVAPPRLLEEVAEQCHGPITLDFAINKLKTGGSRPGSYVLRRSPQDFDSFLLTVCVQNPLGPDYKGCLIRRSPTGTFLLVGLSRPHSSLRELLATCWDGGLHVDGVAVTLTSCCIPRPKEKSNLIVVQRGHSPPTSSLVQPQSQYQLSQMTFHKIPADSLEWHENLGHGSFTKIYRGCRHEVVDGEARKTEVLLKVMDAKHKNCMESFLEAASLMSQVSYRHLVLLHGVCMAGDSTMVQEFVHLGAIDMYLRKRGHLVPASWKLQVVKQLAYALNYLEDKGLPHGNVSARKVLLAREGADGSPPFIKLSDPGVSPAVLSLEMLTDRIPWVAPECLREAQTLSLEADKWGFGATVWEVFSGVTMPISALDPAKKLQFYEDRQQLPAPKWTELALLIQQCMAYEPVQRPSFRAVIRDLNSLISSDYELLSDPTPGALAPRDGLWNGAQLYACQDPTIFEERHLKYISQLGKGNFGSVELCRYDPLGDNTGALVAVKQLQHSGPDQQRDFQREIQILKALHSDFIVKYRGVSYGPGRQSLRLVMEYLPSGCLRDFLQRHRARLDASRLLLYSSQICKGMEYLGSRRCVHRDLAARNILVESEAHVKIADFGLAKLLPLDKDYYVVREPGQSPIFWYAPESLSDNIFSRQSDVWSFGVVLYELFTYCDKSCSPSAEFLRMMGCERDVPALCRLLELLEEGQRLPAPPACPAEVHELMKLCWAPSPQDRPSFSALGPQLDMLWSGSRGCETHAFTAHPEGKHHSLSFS
Protocol: as §1
as §2, with “JAK3” for “KDR”, “500 μM […] [SEQ ID NO: 58],” for “0.33 mg/mL myelin basic protein,”
as §3, §4

MEK1 = target: T3, MEK1 (Homo sapiens, UniProt Q02750); test: Millipore radiometric kinase activity assay, MEK1 (h); assay type: biochemical
T3 construct: purchased Millipore (radiometric assay service)
Protocol: as §1
The reaction is initiated by the addition of the MgATP. After incubation for 40 minutes at room temperature, 5 μL of this incubation mix is used to initiate a MAPK2 (m) assay.
as §3, §4

43 kinases = test: Specificity profile against battery of 43 kinases (Millipore KinaseProfiler); assay type: biochemical, human
Protocol: as §1, §3, §4

c-Kit = target: T4, c-Kit (Homo sapiens, UniProt P10721); test: Millipore radiometric kinase activity assay, c-Kit (h); assay type: biochemical
T4 construct: purchased Millipore (assay service)
Protocol: as §1
as §2, with “c-Kit” for “KDR”, “10 mM MnCl2, 0.1” for “0.33”, “poly(Glu, Tyr) 4:1,” for “myelin basic protein,”, “Filtermat A” for “P30 filtermat”
as §3, §4

T4 sequence (P10721 26-976): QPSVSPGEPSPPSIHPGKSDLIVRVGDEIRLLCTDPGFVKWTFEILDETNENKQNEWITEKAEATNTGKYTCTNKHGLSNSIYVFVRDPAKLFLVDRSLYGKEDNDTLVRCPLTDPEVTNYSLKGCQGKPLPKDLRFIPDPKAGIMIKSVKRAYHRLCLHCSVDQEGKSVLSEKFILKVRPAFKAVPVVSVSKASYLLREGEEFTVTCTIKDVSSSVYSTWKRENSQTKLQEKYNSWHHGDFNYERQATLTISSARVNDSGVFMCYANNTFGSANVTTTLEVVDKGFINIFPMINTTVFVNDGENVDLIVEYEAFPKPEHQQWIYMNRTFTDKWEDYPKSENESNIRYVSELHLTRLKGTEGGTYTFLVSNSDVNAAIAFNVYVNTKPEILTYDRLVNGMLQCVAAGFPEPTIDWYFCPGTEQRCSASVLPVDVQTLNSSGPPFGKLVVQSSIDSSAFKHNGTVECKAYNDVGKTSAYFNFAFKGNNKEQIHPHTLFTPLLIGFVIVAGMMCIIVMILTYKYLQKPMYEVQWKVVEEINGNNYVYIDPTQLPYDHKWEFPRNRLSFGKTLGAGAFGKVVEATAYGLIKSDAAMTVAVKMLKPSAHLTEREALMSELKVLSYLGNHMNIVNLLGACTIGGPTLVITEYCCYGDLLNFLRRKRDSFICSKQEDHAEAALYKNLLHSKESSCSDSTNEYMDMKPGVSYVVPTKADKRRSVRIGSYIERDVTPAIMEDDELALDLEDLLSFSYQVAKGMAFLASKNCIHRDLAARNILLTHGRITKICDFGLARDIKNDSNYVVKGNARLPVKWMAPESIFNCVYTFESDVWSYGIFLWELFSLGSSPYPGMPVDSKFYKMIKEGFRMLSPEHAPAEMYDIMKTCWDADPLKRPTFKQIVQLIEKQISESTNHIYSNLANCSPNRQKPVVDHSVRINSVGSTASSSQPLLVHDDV
T1 sequence (P35968 20-1356): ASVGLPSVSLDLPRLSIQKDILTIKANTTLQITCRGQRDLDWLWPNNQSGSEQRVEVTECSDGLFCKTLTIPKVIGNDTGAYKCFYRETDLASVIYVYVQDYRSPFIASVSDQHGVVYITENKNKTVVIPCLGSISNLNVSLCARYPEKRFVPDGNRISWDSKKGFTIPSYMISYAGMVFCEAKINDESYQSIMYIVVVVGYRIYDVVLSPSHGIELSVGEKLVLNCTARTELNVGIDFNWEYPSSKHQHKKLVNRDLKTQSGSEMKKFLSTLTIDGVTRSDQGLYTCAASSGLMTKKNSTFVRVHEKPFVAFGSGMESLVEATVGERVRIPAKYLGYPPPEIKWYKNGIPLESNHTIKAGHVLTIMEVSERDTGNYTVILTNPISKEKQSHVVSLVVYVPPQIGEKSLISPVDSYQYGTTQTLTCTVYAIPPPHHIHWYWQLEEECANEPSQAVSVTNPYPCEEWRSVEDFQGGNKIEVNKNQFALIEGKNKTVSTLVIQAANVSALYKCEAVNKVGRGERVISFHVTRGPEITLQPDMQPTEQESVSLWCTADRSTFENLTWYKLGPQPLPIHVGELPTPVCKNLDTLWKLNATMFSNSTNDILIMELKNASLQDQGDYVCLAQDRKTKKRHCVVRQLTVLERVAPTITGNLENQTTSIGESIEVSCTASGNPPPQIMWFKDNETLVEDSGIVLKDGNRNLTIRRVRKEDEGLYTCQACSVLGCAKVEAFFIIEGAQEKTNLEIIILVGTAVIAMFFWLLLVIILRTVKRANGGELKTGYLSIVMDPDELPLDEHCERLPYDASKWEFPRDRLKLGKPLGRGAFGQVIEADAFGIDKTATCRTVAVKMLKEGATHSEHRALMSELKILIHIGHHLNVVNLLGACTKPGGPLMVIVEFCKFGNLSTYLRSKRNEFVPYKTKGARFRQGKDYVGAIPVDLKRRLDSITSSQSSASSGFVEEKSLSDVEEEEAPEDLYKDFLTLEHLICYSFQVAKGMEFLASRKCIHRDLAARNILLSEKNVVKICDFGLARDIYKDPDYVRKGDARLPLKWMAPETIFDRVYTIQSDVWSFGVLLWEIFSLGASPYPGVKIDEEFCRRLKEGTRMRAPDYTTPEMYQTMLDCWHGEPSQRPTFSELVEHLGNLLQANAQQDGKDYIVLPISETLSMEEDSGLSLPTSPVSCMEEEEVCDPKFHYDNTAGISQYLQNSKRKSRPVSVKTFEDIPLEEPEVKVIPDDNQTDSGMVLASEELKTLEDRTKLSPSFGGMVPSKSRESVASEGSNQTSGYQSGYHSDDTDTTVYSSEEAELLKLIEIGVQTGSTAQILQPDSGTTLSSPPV

| Sequence | KDR Kinase Activity (%) (+SD %) (KDR; peptide 30 μM) | KDR Kinase Activity (%) (+SD %) (KDR; peptide 100 μM) | JAK3 Kinase Activity (%) (+SD %) (JAK3; peptide 30 μM) | JAK3 Kinase Activity (%) (+SD %) (JAK3; peptide 100 μM) | MEK1 Kinase Activity (%) (+SD %) (MEK1; peptide 30 μM) | MEK1 Kinase Activity (%) (+SD %) (MEK1; peptide 100 μM) | Percentage of the 43 kinases Tested with less than 20% Activity (43 kinases; Concentration Tested 30 μM) [%] | cKit Kinase Activity (%) (+SD %) (c-Kit; peptide 30 μM) | cKit Kinase Activity (%) (+SD %) (c-Kit; peptide 100 μM) | Percentage of the 43 kinases Tested with less than 20% Activity (43 kinases; Concentration Tested 100 μM) [%] |
| --- | --- | --- | --- | --- | --- | --- | --- | --- | --- | --- |
| WLRRIKAWLRRIKALNRQLGVAA | 27 (0) % | 78 (6) % | 85 (5) % | 102 (2) % | 14 (2) % | 68 (2) % | 47 | 23 (2) % | 42 (3) % | – |
| FAKLAARLYRKALARQLGVAA | – | – | – | – | – | – | – | – | – | 37 |
| KAFAKLAARLYRKALARQLGVAA | – | 56 (4) % | – | 91 (8) % | – | 66 (0) % | – | – | 31 (6) % | – |
